# Target: metabotropic glutamate receptor 5 (mouse (endogenous in brain cortex)) (UniProt Q3UVX5)
# Test: co-IP; mGluR5 immunoprecipitated with rabbit anti-mGluR5 on protein G magnetic beads from brain cortex lysates of 1 month-old WT and SPKO (synaptopodin knockout) mice; 20 mM Tris-HCl pH 7.4, 5 mM EDTA, 100 mM NaCl, 1% Triton X-100; overnight at 4 °C; immunoblot with anti-pan-Homer
# Chain of UniProt Q3UVX5 (Q3UVX5 19-1203): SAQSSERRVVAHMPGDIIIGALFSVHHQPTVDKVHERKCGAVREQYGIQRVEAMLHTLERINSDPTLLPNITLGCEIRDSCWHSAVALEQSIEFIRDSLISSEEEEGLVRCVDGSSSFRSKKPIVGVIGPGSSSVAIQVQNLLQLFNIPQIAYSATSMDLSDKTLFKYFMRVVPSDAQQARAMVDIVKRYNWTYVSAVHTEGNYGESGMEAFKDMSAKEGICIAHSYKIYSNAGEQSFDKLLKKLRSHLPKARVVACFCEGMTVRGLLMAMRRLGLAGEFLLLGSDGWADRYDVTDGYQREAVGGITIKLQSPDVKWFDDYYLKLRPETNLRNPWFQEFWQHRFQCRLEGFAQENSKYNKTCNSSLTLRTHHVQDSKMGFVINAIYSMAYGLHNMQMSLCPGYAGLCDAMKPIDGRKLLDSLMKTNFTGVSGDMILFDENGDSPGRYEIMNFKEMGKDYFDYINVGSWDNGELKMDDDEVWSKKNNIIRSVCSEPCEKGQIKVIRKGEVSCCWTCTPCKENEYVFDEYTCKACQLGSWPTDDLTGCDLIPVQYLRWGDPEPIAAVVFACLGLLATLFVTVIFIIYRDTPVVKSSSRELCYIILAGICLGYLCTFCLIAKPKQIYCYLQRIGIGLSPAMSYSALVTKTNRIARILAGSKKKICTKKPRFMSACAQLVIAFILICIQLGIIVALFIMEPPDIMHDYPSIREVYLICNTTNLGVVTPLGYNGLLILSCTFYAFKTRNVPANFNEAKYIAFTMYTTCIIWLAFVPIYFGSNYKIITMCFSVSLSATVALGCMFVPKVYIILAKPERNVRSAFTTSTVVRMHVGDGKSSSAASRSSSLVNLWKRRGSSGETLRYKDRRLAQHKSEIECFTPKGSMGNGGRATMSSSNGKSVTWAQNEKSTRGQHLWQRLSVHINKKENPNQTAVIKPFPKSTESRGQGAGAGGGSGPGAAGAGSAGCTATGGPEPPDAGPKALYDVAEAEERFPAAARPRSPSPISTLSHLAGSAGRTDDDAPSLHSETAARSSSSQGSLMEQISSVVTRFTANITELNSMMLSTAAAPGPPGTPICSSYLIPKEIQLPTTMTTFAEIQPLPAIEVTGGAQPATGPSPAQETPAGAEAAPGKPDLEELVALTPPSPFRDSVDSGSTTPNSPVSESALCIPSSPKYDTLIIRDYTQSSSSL
substance,measurement,value
Homer (long form) (from UniProt Q9Z2Y3 1-366) (natural protein),"coprecipitated Homer, SPKO/WT ratio",0.4

# — PMC10879843
